Assay: soluble fraction after stress (log2 fold change); higher = more stays soluble; pooled small domains, quantitative proteomics
Details: stress: 50 degC
Outline: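 After stress at 50°C, the amount of each protein still soluble was measured. This was done on pooled custom libraries of small protein domains, using high-throughput quantitative proteomics. The figure given is a base-two log fold change and stands for aggregation propensity, with higher values meaning more protein stays in solution.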

Point of comparison: “HMLSVTLTVLPQQAGERLDAFAAAESTLSRSAAAKLIEDGQITVNGARAAKNYRLRAGDVIEIDEPEPI”, “soluble fraction (log2)” value 0.00149. Against it:
- HMKLHQDLQIKVIDAANNKVEFIDTATGTSLATRTLDVNGVSKARGFEATLYGVVEDNDVFHIA — within 0.2 log units, 0.158
- HMGTVVKRNALVHAWTEFNGGRASTKLLALGPGKVGEWIELENPQSGRKLRGEVQVDGSVRLG — within 0.2 log units, 0.11
- HMDWPDDETIARIYALIKSDISSQARKVMELRFSEGMPFARIAAAMGISETAVYRHLSHALTVIRQKLN — lower, -2.06
- HMELLTNPLTGREVEVLTLMALGQTNHEIARQLYLATGTVKAHTSSIYRKLDVANRTEAVARARQLGIL — lower, -1.1
- HMTVSLLQTRQRLQALADLGHYKGDLGAAWGPDAIEALKKAQATLGVTVDGKWGPQTEDAIQVALKVQ — lower, -0.284
- HMANAGKFDSDMGEKINFPGNRVSLTPSELEAARELAAIMGDRFFSQLIPTTSKVTVTEMLQSLK — higher, 0.3
- HMNNGAEIGAEIRSLRKARGLTLEDLAAKIGRSVGYISQVERGISPLTIPNLKAIAEVLGVGINWFFRGEA — lower, -0.552
- HMNEDYSSMVGKTGFALTILRPAGKIMIEEEVFDAVAINGYISKGQEVEVVRYENAQLYVKVK — lower, -0.386
- HMEFDTEFVLRQAMHAFMQYGYAKTSMQKLKEATHLHPGSIYAAYGNKKGLFLAATEQYQKDR — within 0.2 log units, -0.0761
- HMLEASVYTAEKSGDRLDAFLAEQAGITRSYAQKLIEGGQVTLGGVVPKKNYKLSAGEQVELILPEN — within 0.2 log units, 0.0254
- HMKASTRELLDFVLSQRGVSTASVAKALGISVQNASTRLKKLSNEGLIIRSEASSLTGGIEFLYS — lower, -0.799
- HMLTGADAEKATAAAQAEFPGGTVLRVETDADGTYEAHVRKADGTEVEVKMDKDFKVTSVEE — within 0.2 log units, 0.0905
- HMITLPDFVGKDVETVKAWAKENGITLIVNKVEDSAKKDTVISQTPTTYDYSKIMKGSSFTVNVAKE — within 0.2 log units, -0.0122
- HMNNEISINGNKIYFNKNISKVFIYDISGKLIKHKNNFNNNFIDLSEFNSAFYIIKALDINENYTTKKIFL — lower, -1.58
- HMHDHKTRLQELAAQRFGSAPSYLLTADGPAHDRRFHASVEVGGRSFGPGTGKSKKRAEQVAAHIAWDALS — higher, 0.394
- HMRQHHMIISTKLGTPKEELAKLVSGFEDQGLRVSVITGTDYTVIGLVGDTTHLDEKRIRANPYVDNVQRV — within 0.2 log units, -0.0184
- HMKNSMANVQARREKILSAVDQSEPVAVEGLAQRFNVSITTLRRDLKALSDMGQVKWHHGLVERT — within 0.2 log units, -0.173
- HMRQLISIYNNTIGADEIDQMRNILSNSGYKEGVDFAVQTADKKSVILVRRDLAGMIQEQLSGEGLPS — within 0.2 log units, 0.0201
- HMQMKDRILRIMEHEGISPSKFAEEIGIQRSAMSHIISGRNNPSLDVLTKIMQRFTYVDTDWLLFGKGSMV — lower, -0.737
- HMDAEETLGARLRRLRQARGLSLAGLAQAAGLSKPSIWAWENGTTAPRRTSLLALARALDVPEQQLTGV — lower, -0.358
- HMGQVFEGTFNRKANGKNSVTPAEGGEPVFIAERNSLHAMNGDLVKVSLLAKKKHQPREAQVIEILKRSD — within 0.2 log units, 0.144
- HMTTARERVYKTLQQWIVNGTLLPEERLNDVELARYFSVSRTPVREALQMLAEQKLVKMVPSSGTFVA — lower, -0.769
- HMKSNIIPLSLKKPQRLDIFLTNYFVDLSRTQIKKMITDGNIKVNDLIAKPSLKLIGDEIIFYTLPK — lower, -1.24
- HMVLTSFHDNFPKTGTTYTVRSGDTISGIATKFGSTRDWIQNANEISHPKYLQVGRTLFIPH — lower, -0.203
- HMVITATYTDFMDALEADEVKQVQFSSTEINYTIEKGGHVQYFKTGVVDNPQLPQILREKGVTYAAEIP — within 0.2 log units, -0.0375
- HMSEVPAAVLVTGGSINLREAPSTDATIIDVAQVGEKMTVLAEKNSWYQVSRGGRNVWVASWVVDPLT — higher, 0.208
- HMETYPINVETTGTNVLLRTGPSTSSNIIKTITDKGTVFLSIERGINSDWQKVVTPDGTIGYMSGKY — within 0.2 log units, 0.000612
- HMQQEAVSGKLLQLDLAKKEGRLSTDLGREVLFHIPKPELFVHLSVGQRIIIKLDAGQEAVGV — within 0.2 log units, -0.0409
- HMTHSEYVGRHGIAATSLRPAGAATIDGSRVDVVTSGEYIEKGTPIEVMTVNGSTVRVKAVPQIP — within 0.2 log units, 0.0508
- HMVMNKQEFLKILRDTLQSQLSSRETENHVEYYRTYIEEQMREGKTEIEILDVLGDPRLIARTILET — within 0.2 log units, -0.0725
- HMSEGEMSQWIIAQAKQQGGGFQPDAARLLGSYVGNNTLRARQEIDKLLTYVGPSRVVTPEDVVLLTA — within 0.2 log units, -0.0143
- HMEAEDLRDWVGARGIAYTALRPAGIAVVNGRRVDVVSEGAFVNRDDPVEVVRVEGRRIVVKP — within 0.2 log units, -0.143
- HMENYTYKYATSANVNIREEPNTDSTILGKTLLNTEFQVVEDVDGWSKITTEAGYAYIKSEYLSDTE — within 0.2 log units, -0.188
- HMFPNLTNEEQQVMKVLAKTNDLQINMLSVQSNLPIARLTALLFSMEMKGVVKTLAGGVYHLL — lower, -3.23
- HMKKGRIGSIIQYVREHPGVSSSEIITGLGLDISPATIRRDLTLLVAENKLSVEGQNKGTKYFVSPTYDMF — lower, -0.323
- HMDYKYYIVKEPMVVKNLELPVGTRIVYFNTSLFGDSESSRPLKEKNIYQIFFPDDKPLIWGGVPVSLIER — lower, -1.97
- HMADRVFGHIPGVAVGSIFPDRRSLSQTGVHRPTQAGISGNKTDGADSIVVSGGYRDDRDYGDLIIYTG — within 0.2 log units, -0.000463
- HMGAAFITSSKDNAINIRQSANTDSKVIETVTNGQILESNEKSGEWHKVTYYDNDIKKSFTGYVHEGQLK — within 0.2 log units, 0.125
- HMNLIFFSENLSTFRKEKGWTQSELAEKLGVKANTISNYEKGISTPDYKIIAKLRELFEMPTDVLLYSNLS — lower, -1.39
- HMLKPKDLHLGDSVRVLSLNLKGTVSSLPDTKGFLFVQMGIMRSKLHISDLQLIDEPVITAP — within 0.2 log units, -0.128
- HMLRPMVAILNKNISKGQVISEDYIKFEVRPERQIHGAYHDISEVLGRKTKNNIAAGTILKVRHLDT — lower, -0.201
- HMVPHQPRVWTNTAGKTITAAFVRFNAAGRKVSLKLEKGRQVELPLASLSGNDVDWIKEHVPEAMSNQE — within 0.2 log units, -0.142
- HMKYVDYYATLGVARDADLATITKAYRKLARQTHPDLNQGADNEARFKAAAEAYATLKHPEKRAAYDELGQ — within 0.2 log units, -0.00408
- HMDTNVKLLSPKQADFFASKLANNQNFSSKFAKVGEDMQPFIERISSELQQDISQVIVYMPYLLESGFKQ — within 0.2 log units, 0.0782
- HMVLSVRERMGIVLEKVNTETFTDFKELFTVEEGRAGAIVSLLAILQLMKDSLIQLVQNEPNGPIYVKAA — lower, -0.673
- HMRGRFGNAAPARNLGDHPQGGAINVKAGRYGPYVSWGKVNATLPKDSDPEKVTLEEAVALIAAKQSGQG — within 0.2 log units, -0.103
- HMKYGPSTVAVLTVVRESEMGAFLDAETGRTNDDILLHKTQQTEPVHIGDQVKVFLYLDPKHRLTASMRVP — lower, -1.16
- HMDNMTEMQKAVTALIEKSGGSIDNLSVIYDHLKKKYPSFDLKDYGYSRFSSFLRSMENIMVRGNAVTLRS — within 0.2 log units, 0.0337
- HMDGFVFVMPIKETRMFSVNDERPLVGIVKYSNGEFEKEQLIGFRPNSEYEFIIEGQRLYRVPVNSITIK — lower, -0.886
- HMDQEDAYMQVRQVFDTLLVSELSKRIFAWRFFEGKSFAEWPGAESQKFLYDTFNRILLIISAKIRRKNA — within 0.2 log units, -0.0448
- HMRQNPESFLNHKVKKNESLESLTKKYELTENEIIFYNPLIQKIGLKKRMILKIPIYNNQNLVTKSVD — higher, 0.256
- HMIPDLPAVGVNVHKERRRQQLSLDALAAGSGVSKAMLSQIESGKVNPTVATMWKIAHALGVDFELLLKGE — within 0.2 log units, -0.154
- HMDPLPDEVQEVIDMVDGFKAMDELSEADKADVKAAYDAYNALSAEHKAMVPEHIVTFLNRAYDKLFD — within 0.2 log units, 0.0291
- HMISAQEQALRNLKLSNGMTWKALAKALGITERSILSYVAAPGTKGYREMPAEVWHKLENISGH — within 0.2 log units, 0.165
- HMYEGLPVTLIIDGRVIEANLAKANRDMAWLERELANSGVRSHHDVFFATLDSRGQLYYQVKN — within 0.2 log units, -0.143
- HMFPQVEVQLIYSYKSDRILNKMLKEFNVVILNQVFKDDILTSFHMNYSLVNQLITKIKSYPDISYKIIN — lower, -1.5
- HMNHLSYEQRLKIKEMLDGGFKKIDIARALGVHNATIYREIERGSVNGIYNPNKSEEQYRDHLSEK — higher, 0.255
- HMSGTFIGGELVKPGEPLTPMQRAAITMGLQMGNTYSPEIMEKYNNAGGSPSKEEFENYQKNKS — within 0.2 log units, 0.101
- HMYELREGDVVSVRILSQTGQNSYIASFAGGRFSVTSERAFAPGTVFSASVSLKDGTLVLSPL — lower, -0.568
- HMNNTIKFFVSQDDDSTRLDVFLSKKIENLTRSNIKKFINLNNVKINKATINSPSKKVKLYDEIEIKFSS — lower, -1.72
- HMAAIPATVDEETYRRLKPMLKQYGILYHEFKPLRSGKKGAVELIFMEKDLALVQELLSRLKKEK — higher, 0.422
- HMDTFSVAIGTKTPDGSSVGEVKTISRDELLLLEDEVAEDPTKEIIFTGGTKDSAQAALDGWIDYNTNLAS — within 0.2 log units, 0.00318
- HMQYDALVLNLLQEKNLTSESLKDAQRAFAKSHNLSTLPSKSQILQAYFQLLEQGKIEKNPDFELLL — within 0.2 log units, -0.108
- HMKGLKERLLYFIEYKGLPVQMFEKIVGLSNAAVSKMGDNTRRSTIDKISKSFPELDVNWLLTGQGEMLSY — lower, -0.255
- HMIISPKKLEYRQRIINALGDRKMSLNELSKAMGYKGITTKLSFTVDDMIKSGVIEKVMVGAYAKLHIP — lower, -1.65
- HMEGVTVPDVTRISLDEAEELLTSYGLRFEVADRRANSAFPGNYVIDQAPSAEVIVKPNRKIYLTVNAA — within 0.2 log units, -0.134
- HMSHKYKLTVPETGEGTRVDKFLSSALTELSRTRLKSLIEEGQVTLGGVKLTNPSHRVKSGDELNIEIPVP — within 0.2 log units, 0.146

Reference: the domain aggregation screens of Martell et al. (2025)
